B1: full-length Arl2, C-terminal histidine-tagged, bound to GppNHp or mantGppNHp (natural protein, UniProt Q9D0J4 1-184, looked up)
chain: MGLLTILKKMKQKERELRLLMLGLDNAGKTTILKKFNGEDVDTISPTLGFNIKTLEHRGFKLNIWDVGGQKSLRSYWRNYFESTDGLIWVVDSADRQRMQDCQRELQSLLVEERLAGATLLIFANKQDLPGALSCNAIQEALELDSIRSHHWRIQGCSAVTGEDLLPGIDWLLDDISSRVFTAD
notes: Loaded with GppNHp (release assays) or mantGppNHp (kinetics with PDE6δ); Species surmised as mouse from earlier work of the same laboratory; the human protein is P36404; also called Arl2^fl; Arl2·GppNHp; source: E. coli BL21-CodonPlus(DE3)-RIL, purified (Ni-NTA, gel filtration)
B3: TAMRA-labelled farnesylated and carboxy-methylated C-terminal peptide of INPP5E (residues 637-644) (peptide)
peptide: SQNSSTIC(Farnesyl)-OMe
modifications: also: TAMRA label, position not given here
notes: C-terminal peptide of inositol polyphosphate 5'-phosphatase E (INPP5E), printed as residues 637-644 with the farnesylated Cys644; also called INPP5E peptide; TAMRA-labelled INPP5E peptide; source: synthetic peptide, bought: JPT
B4: phosphodiesterase 6 delta subunit (PDE6δ), N-terminal histidine-tagged (natural protein)
chain: MSAKDERAREILRGFKLNWMNLRDAETGKILWQGTEDLSVPGVEHEARVPKKILKCKAVSRELNFSSTEQMEKFRLEQKVYFKGQCLEEWFFEFGFVIPNSTNTWQSLIEAAPESQMMPASVLTGNVIIETKFFDDDLLVSTSRVRLFYV
notes: PDE6δ, the delta subunit of phosphodiesterase 6; the PDE6δ of PDB 3T5G was the search model for the structure solved here (5F2U); also called PrBP/PDE6δ; source: E. coli BL21-CodonPlus(DE3)-RIL, purified (Ni-NTA, gel filtration)

Holding throughout (conditions): both partners purified
Experiment [1] concerns the target B4. In words: fluorescence polarisation; stopped flow; kon: 0.2 μM mantGppNHp-loaded Arl protein with increasing PDE6δ; koff: 2 μM PDE6δ with 0.2 μM mantGppNHp-loaded Arl protein mixed with 200-fold excess of unlabelled Arl protein; Kd=koff/kon; 20 °C.
Experiment [2] has as its target B4. In words: fluorescence polarisation; competition: complex of 0.5 μM FITC-labelled Rheb peptide and 1 μM PDE6δ titrated with unlabelled mutant peptide; fitted with a competition model; 20 °C.
In experiment [3] the target is B4. The experiment is described as follows: fluorescence polarisation; 0.01 μM TAMRA-labelled INPP5E peptide or 0.5 μM FITC-labelled Rheb peptide titrated with increasing PDE6δ; 20 °C; 25 mM Tris-HCl pH 7.5, 50 mM NaCl, 3 mM DTE; quadratic fit. In general terms: Polarisation of emitted light reports the rotation of a fluorescent probe.
Experiment [4] addresses B3. The experiment is described as follows: fluorescence polarisation; stopped flow; complex of 1 μM PDE6δ with 0.2 μM labelled peptide mixed with 100-fold excess of unlabelled peptide and 10 μM Arl3·GppNHp; 20 °C.
In experiment [5] the target is T1, full-length Arl3, C-terminal histidine-tagged, bound to GppNHp or mantGppNHp (UniProt Q9WUL7 1-182).
T1 construct: Loaded with the non-hydrolysable GTP analogue GppNHp (release assays) or mantGppNHp (kinetics with PDE6δ); Species surmised as mouse from earlier work of the same laboratory; the human protein is P36405; also called Arl3^fl; Arl3·GppNHp; source: E. coli BL21-CodonPlus(DE3)-RIL, purified (Ni-NTA, gel filtration)
The experiment is described as follows: fluorescence polarisation; stopped flow; kon: 0.2 μM mantGppNHp-loaded Arl protein with increasing PDE6δ; koff: 2 μM PDE6δ with 0.2 μM mantGppNHp-loaded Arl protein mixed with 200-fold excess of unlabelled Arl protein; Kd=koff/kon; 20 °C.

In experiment [6] the target is T2, N-terminally truncated Arl3 (aa 18-177), bound to GppNHp or mantGppNHp (UniProt Q9WUL7 18-177).
T2 construct: Arl3 residues 18-177, without the N-terminal helix; Species surmised as mouse from earlier work of the same laboratory; also called Arl3^ΔN; source: E. coli BL21-CodonPlus(DE3)-RIL, purified (GSH column, tag cleaved, gel filtration); not shown: GST, N-terminal, cleaved
Described as above.

The target of experiment [7] is B1. Described as above.
In experiment [8] the target is T3, N-terminally truncated Arl2 (aa 17-178), bound to mantGppNHp (UniProt Q9D0J4 17-178).
T3 construct: Arl2 residues 17-178; Species surmised as mouse from earlier work of the same laboratory; also called Arl2^ΔN; source: E. coli BL21-CodonPlus(DE3)-RIL, purified (GSH column, tag cleaved, gel filtration); not shown: GST, N-terminal, cleaved
The description is as above.

Experiment [9] addresses B4. The experiment is described as follows: fluorescence polarisation; stopped flow; complex of 1 μM PDE6δ with 0.2 μM labelled peptide mixed with 100-fold excess of unlabelled peptide, no Arl protein; 20 °C.

Ends that are not written are not given here. * marks the point of attachment. FITC = O=C1OC2(c3ccc(O)cc3Oc3cc(O)ccc32)c2ccc(NC(=S)*)cc21; Farnesyl = CC(C)=CCC/C(C)=C/CC/C(C)=C/C*; Far = not defined here

One may read the Kd as a measure of binding affinity in units of concentration. By koff is commonly meant the rate constant with which the complex falls apart. A high value points to fast dissociation.

For B1, in experiment [1], the “fold difference in koff against Arl2^ΔN” value was determined as 3 fold.

B2: Rheb(SI) peptide (K178S/S180I), farnesylated and carboxy-methylated (peptide)
peptide: SQGSSIC(Far)-OMe
modifications: reading uncertain
notes: C-terminal peptide of Rheb with the -1 and -3 residues swapped to those of INPP5E; Unlabelled; also called SQGSSIC(Far)-OMe; source: synthetic peptide, bought: CambridgePeptides
Turning to B2, the dissociation constant (Kd) in [2] worked out at 12 nM.
B3: in experiment [3], binding was put at a Kd of 3.7 nM. In other words, the single-digit nanomolar range.
As for B4, in experiment [4], the “fold acceleration of koff by Arl3·GppNHp against no Arl” value is about 10000 fold. In addition, the Kd in experiment [5] was 5.8 nM; in [6], 217 nM; in experiment [7] it was 149 nM; in experiment [8] it was 316 nM.

B5: FITC-labelled farnesylated and carboxy-methylated C-terminal peptide of Rheb (residues 175-181) (peptide)
peptide: {FITC}-SQGKSSC(Far)-OMe
modifications: reading uncertain
notes: also called Rheb peptide; Fluorescein-SQGKSSC(Far)-OMe; source: synthetic peptide, bought: JPT
Regarding B5, the dissociation rate constant (koff) in experiment [9] was 0.95 s⁻¹. In experiment [3], this molecule showed an equilibrium dissociation constant (Kd) of 445 nM.

(Values after paper PMC5512577 (Nature Communications, 2016).)
